Experimental data published in paper PMC3985815.

Assays:
Assay in all cases: purified protein
purified protein [1] = substrate: CNc1ncnc2c1ncn2[C@@H]1O[C@H](COP(=O)(O)O)[C@@H](OP(=O)(O)O)[C@H]1O; conditions: 25 mM HEPES, 250 mM KCl, pH 7.5, 30 °C
purified protein [2] = substrate: Cc1cn([C@H]2C[C@H](OP(=O)(O)O)[C@@H](COP(=O)(O)O)O2)c(=O)[nH]c1=O; conditions: 25 mM HEPES, 250 mM KCl, pH 7.5, 30 °C
purified protein [3] = substrate: Nc1ccn([C@H]2C[C@H](OP(=O)(O)O)[C@@H](COP(=O)(O)O)O2)c(=O)n1; conditions: 25 mM HEPES, 250 mM KCl, pH 7.5, 30 °C
purified protein [4] = substrate: Nc1nc2c(ncn2[C@H]2C[C@H](OP(=O)(O)O)[C@@H](COP(=O)(O)O)O2)c(=O)[nH]1; conditions: 25 mM HEPES, 250 mM KCl, pH 7.5, 30 °C
purified protein [5] = substrate: Nc1ncnc2c1ncn2[C@@H]1O[C@H](COP(=O)(O)O)[C@@H](OP(=O)(O)O)[C@H]1O; conditions: 25 mM HEPES, 250 mM KCl, pH 7.5, 30 °C
purified protein [6] = substrate: Nc1ncnc2c1ncn2[C@@H]1O[C@H](COP(=O)(O)O[C@H]2[C@@H](O)[C@H](n3cnc4c(N)ncnc43)O[C@@H]2COP(=O)(O)O)[C@@H](O)[C@H]1O; conditions: 50 mM HEPES, 250 mM KCl, 5.0 mM MgCl2, pH 7.5
purified protein [7] = substrate: Nc1ncnc2c1ncn2[C@H]1C[C@H](OP(=O)(O)O)[C@@H](COP(=O)(O)O)O1; conditions: 25 mM HEPES, 250 mM KCl, pH 7.5, 30 °C
purified protein [8] = substrate: O=c1[nH]cnc2c1ncn2[C@H]1C[C@H](OP(=O)(O)O)[C@@H](COP(=O)(O)O)O1; conditions: 25 mM HEPES, 250 mM KCl, pH 7.5, 30 °C
purified protein [9] = substrate: O=c1ccn([C@H]2C[C@H](OP(=O)(O)O)[C@@H](COP(=O)(O)O)O2)c(=O)[nH]1; conditions: 25 mM HEPES, 250 mM KCl, pH 7.5, 30 °C

B1: Cv1693 (Chromobacterium violaceum ATCC 12472) (protein)
chain: MANIDLHFHSRTSDGALTPTEVIDRAAARAPALLALTDHDCTGGLAEAAAAAARRGIPFLNGVEVSVSWGRHTVHIVGLGIDPAEPALAAGLKSIREGRLERARQMGASLEAAGIAGCFDGAMRWCDNPEMISRTHFARHLVDSGAVKDMRTVFRKYLTPGKPGYVSHQWASLEDAVGWIVGAGGMAVIAHPGRYDMGRTLIERLILDFQAAGGQGIEVASGSHSLDDMHKFALHADRHGLYASSGSDFHAPGEGGRDVGHTEDLPPICRPIWRELEARILRPAD
Question: For B1, which Km (purified protein [1]) is on record?
Answer: 5.4 ± 1.0 µM

Question: What about the kcat (purified protein [1]) of the same protein?
Answer: 11.6 ± 0.4 s⁻¹

Question: And the kcat/Km (purified protein [1])?
Answer: 2.1e+06 ± 400000 M⁻¹ s⁻¹

Question: And the Km (purified protein [2])?
Answer: 9.3 ± 1.0 µM

Question: What about the kcat (purified protein [2]) of the same protein?
Answer: 3.3 ± 0.1 s⁻¹

Question: What about the kcat/Km (purified protein [2]) of the same protein?
Answer: 360000 ± 40000 M⁻¹ s⁻¹

Question: And the Km (purified protein [3])?
Answer: 26 ± 3 µM

Question: And the kcat (purified protein [3])?
Answer: 9.4 ± 0.3 s⁻¹

Question: What about the kcat/Km (purified protein [3]) of the same protein?
Answer: 360000 ± 50000 M⁻¹ s⁻¹

Question: And the Km (purified protein [4])?
Answer: 5.2 ± 0.4 µM

Question: What about the kcat (purified protein [4]) of the same protein?
Answer: 4.2 ± 0.1 s⁻¹

Question: What about the kcat/Km (purified protein [4]) of the same protein?
Answer: 790000 ± 60000 M⁻¹ s⁻¹

Question: And the Km (purified protein [5])?
Answer: 15.5 ± 2.4 µM

Question: What about the kcat (purified protein [5]) of the same protein?
Answer: 22 ± 1 s⁻¹

Question: And the kcat/Km (purified protein [5])?
Answer: 1.4e+06 ± 200000 M⁻¹ s⁻¹

Question: And the Km (purified protein [6])?
Answer: 1.6 ± 0.2 µM

Question: What about the kcat (purified protein [6]) of the same protein?
Answer: 0.05 ± 0.01 s⁻¹

Question: What about the kcat/Km (purified protein [6]) of the same protein?
Answer: 32000 ± 3000 M⁻¹ s⁻¹

Question: And the Km (purified protein [7])?
Answer: 10.2 ± 0.9 µM

Question: And the kcat (purified protein [7])?
Answer: 7.1 ± 0.2 s⁻¹

Question: What about the kcat/Km (purified protein [7]) of the same protein?
Answer: 700000 ± 60000 M⁻¹ s⁻¹

Question: And the Km (purified protein [8])?
Answer: 22 ± 3 µM

Question: And the kcat (purified protein [8])?
Answer: 4.3 ± 0.2 s⁻¹

Question: And the kcat/Km (purified protein [8])?
Answer: 190000 ± 30000 M⁻¹ s⁻¹

Question: What about the Km (purified protein [9]) of the same protein?
Answer: 29 ± 4 µM

Question: What about the kcat (purified protein [9]) of the same protein?
Answer: 5.2 ± 0.2 s⁻¹

Question: And the kcat/Km (purified protein [9])?
Answer: 180000 ± 20000 M⁻¹ s⁻¹
